Measured values from patent publication US20150368616A1, “METHODS FOR INDUCTION OF CELL FATES FROM PLURIPOTENT CELLS” (THE CLEVELAND CLINIC FOUNDATION, priority 2013, published 2015).

Columns and labels:
H1 hES cultures = experiment: Pan-CM induction with reduced serum levels and Wnt3a on the first day, transcript analysis; type: cell-based, human
Source text: FIG. 16 (A-B)—Reduction of serum levels increases endocrine formation. Pluripotent cultures were passaged onto matrigel and maintained in MEF-conditioned medium for three days before being induced to differentiate by exposure to Pan-CM. Three different conditions were used as outlined in panel A. In the first condition Pan-CM was supplemented with Wnt3a on the first day followed by a 0.2% concentration of FBS for the rest of the reaction. In the second condition Pan-CM was supplemented with 0.2% FBS for the second day on. In the third condition Pan-CM was supplemented with 2% KO serum replacer.
The Pan-CM mediated induction of insulin producing cells from the H1 hES cultures is improved when low concentrations of serum is used. […] Finally it was noted that lower levels of serum reduced to levels of MEOX1 (a gene associated with the mesodermal lineage) observed in these cultures.

[1] = system: stage 4 forward directed differentiating hES culture; experiment: Wnt3a at stage 4 of directed differentiation, RT-qPCR and immunohistochemistry; type: cell-based, human
Method: Panel A—Schematic representation of the two different directed differentiation protocols used throughout this series of experiments. The only difference between the two different differentiation protocols is the inclusion of Wnt3a at stage 4 of the directed differentiation protocol as illustrated. Control Cultures and cultures which had Wnt3a administrated at stage 4 were incubated an additional 4 days in maturation medium before RNA extractions and immunohistochemical analysis were performed. Panel B—An RT-qPCR analysis of the two differing conditions. Transcripts assayed are the endodermal marker FoxA2, the pancreatic progenitor marker Pdx1, the TrPC marker Nkx6.1 and the two endocrine markers Glucagon and Insulin. Note two different primer sets were used for insulin.
Panel C-J—Immunohistochemical analysis of stage 5 (day 4) cultures differentiated in the presence and absence of Wnt3a at stage 4. Panels CD and E-F compare the relative levels of C-peptide and Pdx1 respectively between the two differing differentiation protocols. Panels G-J show the combined expression of C-peptide and Pdx1 at both 10× magnification (panels G-H) and 20× Magnification (panels I-J).
To investigate the role of a canonical Wnt input on a PDX1+ progenitor population, Wnt3a was administered to a stage 4 forward directed differentiating hES culture. […] The relative expression of Pdx1 was increased over ˜5 fold over stage 4 cultures lacking the canonical input and relative transcript levels reached ˜3000 fold over hES controls. While Nkx6.1 levels were modest in comparison, only reaching a ˜3.3 fold increase over the stage 4 cultures lacking the canonical input and a relative transcript fold increase of ˜200 over hES controls. […] Both Glucagon and Insulin relative transcript levels were ˜2 fold greater in stage 4 cultures treated with Wnt3a as compared to stage 4 cultures lacking the canonical Wnt drive (FIG. 62 panel B). While there was a ˜5000 fold increase in Glucagon transcript levels and a ˜2500 fold increase in Insulin transcript levels when compared to hES levels. As a means to confirm the accuracy of the relative Insulin transcript levels two different set of primers were used and both primer sets produced similar results. In addition immunohistochemical analysis of these two different reactions was used to confirm the transcript analysis.

pluripotent cultures = experiment: Defined (cell conditioned) medium versus Pan-CM, 5 day induction with serum variations and Wnt3a; type: cell-based, human; details: Wnt3a on the first day of the induction, 5 day induction period
Method: FIG. 44 (A-B)—Cell conditioned medium improves over the Pan-CM induction of pluripotent cells. Pluripotent cultures were passaged onto matrigel and maintained in the presence of MEF conditioned medium for 3 days to maintain pluripotency. They were next subjected to either Pan-CM or our cell conditioned medium supplemented with either 2% KO serum replacer or low concentrations of FBS as defined in panel A. The addition of Wnt3a on the initial day of differentiation was also assayed. […] Note the occurrence of the trunk progenitor cell is best defined with the loss of NKX6.1.
We next explored the ability of our defined medium informed from the transcriptome and sectretome analysis of the Pan-MEF cultures to induce the differentiation of pluripotent cells towards pancreatic fates. This was performed in short term cultures with incubation periods only lasting 5 days (FIG. 43).

Ngn3 = experiment: Mutational series of Ngn3 in the HepG2 stability assay; type: cell-based
Source text: FIG. 66 (A-B) illustrates a mutational series of Ngn3, designed to stabilize the protein. A. listing of site directed point mutations. B. Testing of five substitution mutants.
Combined, these analyses served to focus us on the presence of lysines in the Helix 1/loop region and highlighted the importance of N-terminal acetylation protection as well. Of note, The K^118LTK^121 motif in the loop is completely conserved in Ngn3 in vertebrates, including teleosts and amphibians, and also between Ngn family members. Our approach to stabilizing Ngn3 is therefore to create an exhaustive point-substitution series of K>R to cover the entire protein (FIG. 66A), and also create deletion mutants of the N-, and C-termini flanking the bHLH domain. Because K121 is completely conserved in the bHLH family group, and positioned so that it aligns with the Helix 1 axis, this residue is likely critical for the folding/binding dynamics of the HLH domain, and mutation of this may likely impact DNA binding/function. Such constraints are not evident for K^118. We will also substitute the T120 residue in the KLTK loop to a Glutamic acid (E) to mimic a possible stabilizing phosphorylation event, which, based on phylogenetic comparisons to MASH1 may be of importance. […]

[2] = Wnt3A added to Pan-CM on the first day, then 0.2% FBS

| Molecule | HNF1-B up regulation (H1 hES cultures; [2]) | HNF6 up regulation (H1 hES cultures; [2]) | insulin transcript levels (H1 hES cultures; Wnt3a on the first day of differentiation in Pan-CM) | Glucagon and Insulin relative transcript levels compared to stage 4 cultures lacking the canonical Wnt drive [1] | Glucagon transcript levels increase compared to hES levels [1] | Insulin transcript levels increase compared to hES levels [1] | Nkx6.1 increase over the stage 4 cultures lacking the canonical input [1] | Nkx6.1 relative transcript fold increase over hES controls [1] | Pdx1 relative expression over stage 4 cultures lacking the canonical input [1] | Pdx1 relative transcript levels over hES controls [1] | NKX6.1 expression (pluripotent cultures) | Ngn3 protein stability (Ngn3) |
| --- | --- | --- | --- | --- | --- | --- | --- | --- | --- | --- | --- | --- |
| Wnt3a: canonical Wnt ligand (protein, UniProt P56704 19-352, looked up) Protein Wnt-3a: SYPIWWSLAVGPQYSSLGSQPILCASIPGLVPKQLRFCRNYVEIMPSVAEGIKIGIQECQHQFRGRRWNCTTVHDSLAIFGPVLDKATRESAFVHAIASAGVAFAVTRSCAEGTAAICGCSSRHQGSPGKGWKWGGCSEDIEFGGMVSREFADARENRPDARSAMNRHNNEAGRQAIASHMHLKCKCHGLSGSCEVKTCWWSQPDFRAIGDFLKDKYDSASEMVVEKHRESRGWVETLRPRYTYFKVPTERDLVYYEASPNFCEPNPETGSFGTRDRTCNVSSHGIDGCDLLCCGRGHNARAERRREKCRCVFHWCCYVSCQECTRVYDVHTCK | ~55 × | ~85 × | comparable to the Pan-CM induction with 2% KO serum replacer | ~2 fold | ~5000 fold | ~2500 fold | ~3.3 fold | ~200 fold | > 5 fold | ~3000 fold | improved |  |
| K86/87 to Arginines: Ngn3 substitution mutant, lysines K86/87 replaced by Arginines, stabilized Ngn3 (protein, UniProt P70661 1-214, looked up, variant K86R K87R) Neurogenin-3: MAPHPLDALTIQVSPETQQPFPGASDHEVLSSNSTPPSPTLIPRDCSEAEVGDCRGTSRKLRARRGGRNRPKSELALSKQRRSRRRRANDRERNRMHNLNSALDALRGVLPTFPDDAKLTKIETLRFAHNYIWALTQTLRIADHSFYGPEPPVPCGELGSPGGGSNGDWGSIYSPVSQAGNLSPTASLEEFPGLQVPSSPSYLLPGALVFSDFL |  |  |  |  |  |  |  |  |  |  |  | lead to stabilization |
